# Source: the supplement of paper PMC9170038
# Tested on: MS2 coat protein
# Experiment: apparent KD of MS2 coat protein; designed switch direction (-1 OFF switch, 1 ON switch): -1; higher = weaker reporter binding
# Summary of the method: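 Designed RNA switches sharing common flanks were transcribed on Illumina chips by stalled E. coli RNA polymerase. They were titrated with SNAP-549-labelled MS2 coat protein, from 0.7 or 1.5 nM doubling to 3 µM, in Tris-HCl pH 7.5 buffer with KCl, MgCl2, BSA, DTT, tRNA and Tween-20. Titrations ran without input, with 200 uM small-molecule ligand, or with an oligonucleotide input. The apparent KD of each design is the median over its clusters, after curve-fitting of normalised cluster fluorescence.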
# [1] = Eterna round: R95, input ligand: FMN 200 uM
# [2] = Eterna round: R95, input ligand: microRNA oligo, concentration not stated
# [3] = Eterna round: R95, input ligand: none
# [4] = input ligand: microRNA oligo, concentration not stated
Sequence,apparent KD of MS2 coat protein [1] [nM],apparent KD of MS2 coat protein [2] [nM],apparent KD of MS2 coat protein [3] [nM],apparent KD of MS2 coat protein (input ligand: FMN 200 uM) [nM],apparent KD of MS2 coat protein (input ligand: none) [nM],apparent KD of MS2 coat protein [4] [nM]
UAAAAGGUAGGAUAUACGAAAAAAAAGGGUAGAAAAAAAACACAUGAGGAUCACCCAUGUAGAAGGACCAAAAC [salish99_ex2_r3_047] (puzzle: Exclusion 2),103,33.2,30.3,,,
"UAAAAUCUAGGAUAUACAUGAGGAUCACCCAUGUUGCUCCCAGCUCGUGACCUCCAAUGUAGAAGGAGAACGAU [EX3 A.15] (Eterna round: R97, puzzle: Exclusion 3)",,,,19.8,20.1,
"UAAACAAGCUAAAGAUCCCACAUGAGGAUCACCCAUGUGCUCGUCUUGUAACGUACUGUGACGAAAGUCACGGUACG [JL TOV1 3.11] (Eterna round: R97, puzzle: Sensor, turn-off variant 1)",,,,19.1,22.8,
"UAAACAAGCUAAAGAUUCUACAUGAGGAUCACCCAUGUGCUCGUCUUAUAAGGUACUGUGACGAAAGUCACGGUACC [JL TOV1 3.07] (Eterna round: R97, puzzle: Sensor, turn-off variant 1)",,,,17.9,21.1,
"UAAACCAGAGGAUAUGCGAAUAAAUAAAACUUUUUUUUUUAACAUGAGGAUCACCCAUGUAGAAGGCUGCAAUU [Ex2 #32] (Eterna round: R97, puzzle: Exclusion 2)",,,,30.4,30,
"UAAAGCGUAGGAUAUACAUUCAUGAGCACCACCCGGUGCACACAUGAGGAUCACCCAUGUAGAAGGAUGCUACG [Eternabot (Original) Solution 49] (Eterna round: R97, puzzle: Exclusion 2)",,,,14.6,17.6,
"UAAAGUAUAUAGGAUAUCUAGCUGGAAACAGCUAGAGAAGGAUGUACAUGAGGAUCACCCAUGUAAAUCGUGAA [Ex6/13-A1] (Eterna round: R97, puzzle: Exclusion 6)",,,,16.2,13,
"UAAAUAAAUGUAGGAUAUCUGCACGAUUAGUGCAGAGAAGGACAUGAGGAUCACCCAUGUAUAGUAGCUUCGGCUACAAAUAAU [ENG1-C1] (Eterna round: R96, puzzle: Exclusion NG 1)",,,,89.9,71.2,51.9
"UAAAUGUCAGGAUAUUGUUAAUUUAGUUGUUUGUAUUAGUUCGAGAAGGGACAUGAGGAUCACCCAUGUUAAAU [Ex4 #53] (Eterna round: R97, puzzle: Exclusion 4)",,,,45.9,30.4,
"UAACAAGCUUAAAGAUCCCACAUGAGGAUCACCCAUGUGCUCGUCUUAUAACGUACUGUGACGAAAGUCACGGUACG [JL TOV1 3.13] (Eterna round: R97, puzzle: Sensor, turn-off variant 1)",,,,29.2,26.3,
"UAACUUAUUGUAAGGAUAUCGGUCCGAAAGGACAACGAGAAGGUACAUGAGGAUCACCCAUGUGAAAUAAGAAU [Mod of Zala 21 - Jieux - Brourd's Mod of Exclusion 4] (Eterna round: R97, puzzle: Brourd's mod of Exclusion 4)",,,,261,29.4,
"UAAGGGUGCGUAGGAUAUCGCGGCCGAAUAAAGCGAGAAGGACGCCCUAAUGGGUCGUCCAACAUGAGGAUCACCCAUGUAUAC [Uslaarus] (Eterna round: R96, puzzle: Exclusion NG 1)",,,,55.4,41.5,31.2
"UAAUAAAGGGUAGGAUAUGCCGAACAAACACGAGCAGAAGGACCAAAACACUACUUGAGGAUCACCCAAGUGUCCUUCCGUGGU [Mutated MS2 EX1.6] (Eterna round: R96, puzzle: Exclusion NG 1)",,,,52.4,17.2,13.2
"UAAUAACAAGCGAGAUCCUACAUGAGGAUCACCCAUGUGCUCGUCUUAUAAGGUACUGUGACGAUAGUCACGGUACC [Mat - Sensor, turn-off var - Eli Mod - D96] (Eterna round: R97, puzzle: Sensor, turn-off variant 1)",,,,17.8,18.2,
"UAAUACAAGCAAAGAUCCUACAUGAGGAUCACCCAUGUGCUCGUCUUGUAAAGUACUAUCACGAAAGUGAUAGUACA [Mat - Sensor v3 - turn-off var 1 - Eli Mod - D77] (puzzle: Sensor v3, turn-off variant 1)",41.2,17.1,114,,,
"UAAUGCAGGUAAAGAUUCUACAUGAGGAUCACCCAUGUGCUCGUCUUAUAAAGUACUAUCACGAAAGUGAUAGUACA [Mat - Sensor v3 - turn-off var 1 - Eli Mod - D101] (puzzle: Sensor v3, turn-off variant 1)",27.6,220,24.8,,,
"UAAUGGACAGGAUAUACAUGAGGAUCACCCAUGUCGGCCGGUCCUGUUCUAAGAGCGAGUAGAAGGGUCACGUU [Eternabot (L1) Solution 4] (Eterna round: R97, puzzle: Exclusion 3)",,,,11.6,11.9,
"UAAUUGUGAGGAUAUUCGUUUAACACGGAGACGUGUUGAACGGAGAAGGCACAUGAGGAUCACCCAUGUUCCUU [Mat - Exclusion 4 - JL Mod - D17] (Eterna round: R97, puzzle: Exclusion 4)",,,,89.9,19.3,
"UAAUUUUUAGUAAGGAUAUCGGUCCCAAGGGACAACGAGAAGGUACAUGAGGAUCACCCAUGUGACGAAAGAAU [Mod of Zala 9 - Jieux - Brourd's Mod of Exclusion 4] (Eterna round: R97, puzzle: Brourd's mod of Exclusion 4)",,,,35.6,15.5,
"UACAGUCAUCCUUGUUGUUACAUGAGGAUCACCCAUGUUAGUAUAAUUAAGUUAUGUAAGUUUGUUGUUCGUUUUAU [JR_STOV1_v2_Sub076] (Eterna round: R97, puzzle: Sensor, turn-off variant 1)",,,,94.2,101,
"UACAUGAGGAUCACCCAUGUUUUGUCGUGUAUGGUAUUUAUCUAGGAUAUCAAUGUAUUAAUUUAUGAGAAGGAGAAUAUUAAU [JMF's solution 44] (Eterna round: R96, puzzle: Exclusion NG 3)",,,,42,43.2,27.3
"UACAUGAGGAUCACCCAUGUUUUGUCGUGUAUGGUAUUUAUCUAGGAUAUCAAUUGAUUUAGUUAUGAGAAGGAGAAUAUUAAU [JMF's solution 62] (Eterna round: R96, puzzle: Exclusion NG 3)",,,,27.2,30.1,20.6
"UACAUGAGGAUCACCCAUGUUUUGUCGUGUAUGGUAUUUAUCUAGGAUAUCAAUUUGAUUAUUUAUGAGAAGGAGAAUAUUAAU [JMF's solution 65] (Eterna round: R96, puzzle: Exclusion NG 3)",,,,39.1,39.1,28.8
"UACAUGAGGAUCACCCAUGUUUUGUCGUGUAUGGUAUUUAUCUAGGAUAUCACGUUAUUUAUUUAUGAGAAGGAGAAUAUUAAU [JMF's solution 26] (Eterna round: R96, puzzle: Exclusion NG 3)",,,,38.9,39,17.1
"UACAUGAGGAUCACCCAUGUUUUGUCGUGUAUGGUAUUUAUCUAGGAUAUCAUUCUAUUUAUUUAUGAGAAGGAGAAUAUUAAU [JMF's solution 98] (Eterna round: R96, puzzle: Exclusion NG 3)",,,,33.4,29.7,23.5
"UACAUGAGGAUCACCCAUGUUUUGUCGUGUAUGGUAUUUAUCUAGGAUAUCAUUUUAAUUAGUUAUGAGAAGGAGAAUAUUAAU [JMF's solution 87] (Eterna round: R96, puzzle: Exclusion NG 3)",,,,33.7,32.5,24.4
"UACAUGAGGAUCACCCAUGUUUUGUCGUGUAUGGUAUUUAUCUAGGAUAUCAUUUUAUCUAGUUAUGAGAAGGAGAAUAUUAAU [JMF's solution 89] (Eterna round: R96, puzzle: Exclusion NG 3)",,,,,,26.6
"UACGAACUAGGAUAUGCAAUGGGCUCGCUUUCCUUCGAUAAACUUGAGGAUCACCCAAGUAGAAGGAGUUUGUA [Mod 38 - Jieux - Exclusion 2] (Eterna round: R97, puzzle: Exclusion 2)",,,,40.8,16.6,
